In article PMC6793942, “The Ps and Qs of alarmone synthesis in Staphylococcus aureus” (PLoS ONE, 2019):

Key:
Sm-RelQ = target: T1, Sm-RelQ (Streptococcus mutans, UniProt Q8DU97); conditions: allosteric activator; pGpp synthesis from 1 mM GMP + 1 mM ATP; 2 mM MgCl2; pH 9.0; 37°C
T1 construct: gene SMU_1046c
Text: AMP formation by anion exchange chromatography, fold change of rate on Sm-RelQ

Sm-RelP = target: T2, Sm-RelP (Streptococcus mutans, UniProt Q8DUK1); conditions: inhibitor; pGpp synthesis from 1 mM GMP + 1 mM ATP; 2 mM MgCl2; pH 9.0; 37°C
T2 construct: gene SMU_926
T2 sequence (Q8DUK1 entry or part of it): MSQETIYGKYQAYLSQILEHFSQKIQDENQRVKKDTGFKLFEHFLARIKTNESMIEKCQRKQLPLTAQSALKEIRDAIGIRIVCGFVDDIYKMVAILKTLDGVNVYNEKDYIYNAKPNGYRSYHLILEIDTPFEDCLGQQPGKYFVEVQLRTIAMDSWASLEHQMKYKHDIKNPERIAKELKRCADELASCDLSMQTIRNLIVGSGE
Text: AMP formation by anion exchange chromatography, fold change of rate on Sm-RelP

EF-RelQ = target: T3, EF-RelQ (Enterococcus faecalis, UniProt Q830U9); conditions: allosteric activator; ppGpp synthesis from 1 mM GDP + 1 mM ATP; 2 mM MgCl2; pH 9.0; 37°C
T3 construct: gene EF_2671
T3 sequence (Q830U9 entry or part of it): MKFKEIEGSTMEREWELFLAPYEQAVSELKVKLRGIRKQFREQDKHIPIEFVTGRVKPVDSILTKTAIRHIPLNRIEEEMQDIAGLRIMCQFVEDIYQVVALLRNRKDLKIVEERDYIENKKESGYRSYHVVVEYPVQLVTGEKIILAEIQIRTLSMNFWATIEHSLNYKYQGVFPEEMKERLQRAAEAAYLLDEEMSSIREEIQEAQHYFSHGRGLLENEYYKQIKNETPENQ
Text: AMP formation by anion exchange chromatography, fold change of rate on EF-RelQ

[1] = system: Nc1nc2c(ncn2[C@@H]2O[C@H](COP(=O)(O)OP(=O)(O)O)[C@@H](O)[C@H]2O)c(=O)[nH]1; test: product formation by anion exchange chromatography; assay type: biochemical, Staphylococcus aureus; conditions: ppGpp synthesis, 2.5 mM ATP, 5 mM MgCl2, pH 9.0, no added alarmone
Text: (§1) product formation by anion exchange chromatography on Sa-RelP

[2] = system: Nc1nc2c(ncn2[C@@H]2O[C@H](COP(=O)(O)OP(=O)(O)OP(=O)(O)O)[C@@H](O)[C@H]2O)c(=O)[nH]1; test: product formation by anion exchange chromatography; assay type: biochemical, Staphylococcus aureus; conditions: pppGpp synthesis, 2.5 mM ATP, 5 mM MgCl2, pH 9.0, no added alarmone
Text: as §1

[3] = system: Nc1nc2c(ncn2[C@@H]2O[C@H](COP(=O)(O)O)[C@@H](O)[C@H]2O)c(=O)[nH]1; test: product formation by anion exchange chromatography; assay type: biochemical, Staphylococcus aureus; conditions: pGpp synthesis, 2.5 mM ATP, 5 mM MgCl2, pH 9.0, no added alarmone, 625 ± 165 in the source
Text: as §1

[4] = system: Nc1nc2c(ncn2[C@@H]2O[C@H](COP(=O)(O)OP(=O)(O)O)[C@@H](O)[C@H]2O)c(=O)[nH]1; test: purified protein; conditions: ppGpp synthesis (SYNTH domain), 8 mM ATP, 6 mM MgCl2, pH 7.8, 25°C
[5] = system: Nc1nc2c(ncn2[C@@H]2O[C@H](COP(=O)(O)OP(=O)(O)OP(=O)(O)O)[C@@H](O)[C@H]2O)c(=O)[nH]1; test: purified protein; conditions: pppGpp synthesis (SYNTH domain), 8 mM ATP, 6 mM MgCl2, pH 7.8, 25°C
[6] = system: Nc1nc2c(ncn2[C@@H]2O[C@H](COP(=O)(O)OP(=O)(O)OP(=O)(O)O)[C@@H](OP(=O)(O)OP(=O)(O)O)[C@H]2O)c(=O)[nH]1; test: purified protein; conditions: hydrolysis (HD domain), 1 mM MnCl2, 10 mM MgCl2, pH 7.8, 25°C
[7] = system: Nc1nc2c(ncn2[C@@H]2O[C@H](COP(=O)(O)O)[C@@H](OP(=O)(O)OP(=O)(O)O)[C@H]2O)c(=O)[nH]1; test: purified protein; conditions: hydrolysis (HD domain), 1 mM MnCl2, 10 mM MgCl2, pH 7.8, 25°C
[8] = system: Nc1nc2c(ncn2[C@@H]2O[C@H](COP(=O)(O)OP(=O)(O)O)[C@@H](OP(=O)(O)OP(=O)(O)O)[C@H]2O)c(=O)[nH]1; test: purified protein; conditions: hydrolysis (HD domain), 1 mM MnCl2, 10 mM MgCl2, pH 7.8, 25°C

T1 sequence (Q8DU97 entry or part of it): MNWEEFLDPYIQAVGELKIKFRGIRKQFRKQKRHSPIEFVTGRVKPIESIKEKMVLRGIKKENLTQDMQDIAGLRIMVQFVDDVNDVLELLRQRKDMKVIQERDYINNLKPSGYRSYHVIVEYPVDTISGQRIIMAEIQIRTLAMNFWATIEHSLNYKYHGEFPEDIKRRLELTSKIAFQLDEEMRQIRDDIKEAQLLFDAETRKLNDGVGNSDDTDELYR

Nc1nc2c(ncn2[C@@H]2O[C@H](COP(=O)(O)OP(=O)(O)OP(=O)(O)O)[C@@H](OP(=O)(O)OP(=O)(O)O)[C@H]2O)c(=O)[nH]1 [pppGpp, guanosine-5’-triphosphate 3’-diphosphate]
+ 100 μM pppGpp / Fold-change (Sm-RelQ): 572 ± 149 fold
+ 100 μM pppGpp / Fold-change (Sm-RelP): 0.3 ± 0.1 fold

Nc1nc2c(ncn2[C@@H]2O[C@H](COP(=O)(O)OP(=O)(O)O)[C@@H](OP(=O)(O)OP(=O)(O)O)[C@H]2O)c(=O)[nH]1 [ppGpp, guanosine-3’,5’-bis(diphosphate)]
+ 100 μM ppGpp / Fold-change (EF-RelQ): 7.8 ± 0.6 fold

Sa-RelP (Staphylococcus aureus subsp. aureus NCTC 8325)
Km [1]: 177 ± 52 µM
Vmax [1]: 12 µM/min
kcat [1]: 0.78 ± 0.08 s⁻¹
kcat/Km [1]: 4430 ± 900 M⁻¹ s⁻¹
Km [2]: 80 ± 21 µM
Vmax [2]: 6 µM/min
kcat [2]: 0.38 ± 0.03 s⁻¹
kcat/Km [2]: 4750 ± 1000 M⁻¹ s⁻¹
Km [3]: 625 ± 169 µM
Vmax [3]: 3.6 µM/min
kcat [3]: 0.06 ± 0.01 s⁻¹
kcat/Km [3]: 90 ± 20 M⁻¹ s⁻¹

Sa-Rel (Staphylococcus aureus subsp. aureus MRSA252)
Km [4]: 434.9 ± 61.2 µM
Vmax [4]: 1.08 µM/min
kcat [4]: 0.018 s⁻¹
kcat/Km [4]: 41 M⁻¹ s⁻¹
Km [5]: 114.3 ± 15.7 µM
Vmax [5]: 3.84 µM/min
kcat [5]: 0.064 s⁻¹
kcat/Km [5]: 560 M⁻¹ s⁻¹
Km [6]: 14.2 ± 1.3 µM
Vmax [6]: 4.68 µM/min
kcat [6]: 0.78 s⁻¹
kcat/Km [6]: 55200 M⁻¹ s⁻¹
Km [7]: 16.9 ± 2.1 µM
Vmax [7]: 4.08 µM/min
kcat [7]: 0.68 s⁻¹
kcat/Km [7]: 40000 M⁻¹ s⁻¹
Km [8]: 21.7 ± 2.8 µM
Vmax [8]: 3.6 µM/min
kcat [8]: 0.6 s⁻¹
kcat/Km [8]: 27500 M⁻¹ s⁻¹
